# Experimental data taken from the Immune Epitope Database (IEDB).
# Columns and labels:
# HLA-B*48:01 = test: IEDB peptide-MHC binding, purified MHC/direct/fluorescence; filed as Kd, often an IC50 or EC50 that approximates it; ≥ and ≤ were set here for values at or beyond the usual limits of such assays
# HLA-C*14:02 = test: as above
# HLA-A*26:02 = test: as above; conditions: source organism: Vibrio cholerae V51
# HLA-A*26:01 [1] = test: as above
# HLA-B*15:01 [2] = test: as above
# HLA-B*35:01 = test: IEDB peptide-MHC binding, purified MHC/competitive/fluorescence; filed as Kd, often an IC50 or EC50 that approximates it; ≥ and ≤ were set here for values at or beyond the usual limits of such assays; conditions: source organism: Mycobacterium tuberculosis H37Rv
# HLA-A*01:01 = test: as above
# HLA-B*58:01 [3] = test: as above
# HLA-A*26:01 [4] = test: as above
# HLA-A*03:01 [5] = test: as above
# HLA-B*15:01 [6] = test: as above
# HLA-A*33:01 = test: IEDB peptide-MHC binding, purified MHC/competitive/radioactivity; filed as Kd, often an IC50 or EC50 that approximates it; ≥ and ≤ were set here for values at or beyond the usual limits of such assays; conditions: source organism: Vaccinia virus WR
# HLA-A*68:01 = test: as above; conditions: source organism: Vaccinia virus WR
# HLA-B*40:01 = test: IEDB peptide-MHC binding, purified MHC/direct/fluorescence; filed as Kd, often an IC50 or EC50 that approximates it; ≥ and ≤ were set here for values at or beyond the usual limits of such assays; conditions: source organism: Camelpox virus M-96
# HLA-B*27:05 = test: as above; conditions: source organism: Camelpox virus M-96
# HLA-B*58:01 [7] = test: as above
# HLA-B*46:01 [8] = test: as above; conditions: source organism: Camelpox virus M-96
# HLA-A*02:01 [9] = test: as above; conditions: source organism: Camelpox virus M-96
# HLA-A*31:01 [10] = test: as above; conditions: source organism: Camelpox virus M-96
# HLA-A*69:01 [11] = test: IEDB peptide-MHC binding, purified MHC/competitive/fluorescence; filed as Kd, often an IC50 or EC50 that approximates it; ≥ and ≤ were set here for values at or beyond the usual limits of such assays
# HLA-B*57:01 = test: as above
# HLA-B*15:17 = test: as above; conditions: source organism: Variola virus
# HLA-A*11:01 = test: as above; conditions: source organism: Variola virus
# HLA-C*06:02 = test: IEDB peptide-MHC binding, purified MHC/direct/fluorescence; filed as Kd, often an IC50 or EC50 that approximates it; ≥ and ≤ were set here for values at or beyond the usual limits of such assays
# HLA-B*39:01 [12] = test: as above; conditions: source organism: Influenza A virus (A/mallard/Norway/685/05(H9N2))
# HLA-A*02:12 = test: as above; conditions: source organism: Zaire ebolavirus
# HLA-C*12:03 = test: as above; conditions: source organism: Zaire ebolavirus
# HLA-A*02:19 = test: as above; conditions: source organism: Zaire ebolavirus
# HLA-A*03:01 [13] = test: as above
# HLA-A*02:03 = test: as above
# HLA-A*02:16 = test: as above
# HLA-A*68:02 = test: as above
# HLA-B*18:01 = test: IEDB peptide-MHC binding, purified MHC/competitive/fluorescence; filed as Kd, often an IC50 or EC50 that approximates it; ≥ and ≤ were set here for values at or beyond the usual limits of such assays
# HLA-B*27:03 = test: as above
# HLA-A*02:01 [14] = test: as above; conditions: source organism: Zaire ebolavirus
# HLA-B*39:01 [15] = test: as above
# HLA-A*02:11 = test: IEDB peptide-MHC binding, purified MHC/direct/fluorescence; filed as Kd, often an IC50 or EC50 that approximates it; ≥ and ≤ were set here for values at or beyond the usual limits of such assays; conditions: source organism: Zaire ebolavirus
# HLA-A*29:02 = test: as above; conditions: source organism: Zaire ebolavirus
# HLA-B*51:01 = test: IEDB peptide-MHC binding, purified MHC/competitive/fluorescence; filed as Kd, often an IC50 or EC50 that approximates it; ≥ and ≤ were set here for values at or beyond the usual limits of such assays
# HLA-B*46:01 [16] = test: as above
# HLA-A*69:01 [17] = test: IEDB peptide-MHC binding, purified MHC/direct/fluorescence; filed as Kd, often an IC50 or EC50 that approximates it; ≥ and ≤ were set here for values at or beyond the usual limits of such assays; conditions: source organism: Francisella tularensis subsp. holarctica LVS
# HLA-A*24:03 = test: IEDB peptide-MHC binding, purified MHC/competitive/fluorescence; filed as Kd, often an IC50 or EC50 that approximates it; ≥ and ≤ were set here for values at or beyond the usual limits of such assays; conditions: source organism: Francisella tularensis subsp. tularensis FSC198
# HLA-A*31:01 [18] = test: as above; conditions: source organism: Francisella tularensis subsp. tularensis FSC198
# HLA-C*15:02 = test: IEDB peptide-MHC binding, purified MHC/direct/fluorescence; filed as Kd, often an IC50 or EC50 that approximates it; ≥ and ≤ were set here for values at or beyond the usual limits of such assays; conditions: source organism: Orthohantavirus andesense
# [19] = source organism: Burkholderia orbicola
# [20] = source organism: Camelpox virus M-96
# [21] = source organism: Zaire ebolavirus
# [22] = source organism: Calabazo virus
# [23] = source organism: Orthohantavirus andesense
sequence,measurement,setting,value
AAAAFEAAL,Kd,HLA-B*48:01; source organism: Mycobacterium tuberculosis str. Haarlem,0.175 µM
same,Kd,HLA-C*14:02; [19],0.166 µM
AIARGFHFY,Kd,HLA-A*26:02,0.107 µM
same,Kd,HLA-A*26:01 [1]; source organism: Vibrio cholerae V51,1.07 µM
AMAAAAAPY,Kd,HLA-B*15:01 [2]; source organism: Mycobacterium tuberculosis variant bovis BCG str. Pasteur 1173P2,0.294 µM
same,Kd,HLA-C*14:02; source organism: Mycobacterium tuberculosis H37Rv,0.094 µM
same,Kd,HLA-B*35:01,0.0083 µM
ASAAHLAAY,Kd,HLA-A*01:01; [19],0.0236 µM
same,Kd,HLA-B*58:01 [3]; [19],1.26 µM
same,Kd,HLA-A*26:01 [4]; [19],0.775 µM
same,Kd,HLA-A*03:01 [5]; [19],0.7 µM
same,Kd,HLA-B*15:01 [6]; [19],0.156 µM
ETIEILRNY,Kd,HLA-A*33:01,2.14 µM
same,Kd,HLA-A*68:01,0.0146 µM
same,Kd,HLA-B*48:01; [20],≥ 20 µM
same,Kd,HLA-B*40:01,≥ 20 µM
same,Kd,HLA-B*27:05,≥ 20 µM
same,Kd,HLA-B*58:01 [7]; [20],≥ 20 µM
same,Kd,HLA-A*26:01 [1]; [20],0.0021 µM
same,Kd,HLA-B*46:01 [8],≥ 20 µM
same,Kd,HLA-A*02:01 [9],≥ 20 µM
same,Kd,HLA-A*31:01 [10],≥ 20 µM
same,Kd,HLA-A*01:01; source organism: Variola virus,3.6 µM
same,Kd,HLA-A*69:01 [11]; source organism: Variola virus,≥ 20 µM
same,Kd,HLA-A*03:01 [5]; source organism: Variola virus,1.95 µM
same,Kd,HLA-B*57:01; source organism: Variola virus,0.926 µM
same,Kd,HLA-B*15:17,0.0869 µM
same,Kd,HLA-A*11:01,≥ 20 µM
HRTLLMNEL,Kd,HLA-C*06:02; source organism: Influenza A virus (A/nt/60/1968(H3N2)),≥ 20 µM
same,Kd,HLA-B*39:01 [12],≥ 20 µM
IMYDHLPGF,Kd,HLA-A*02:12,≥ 20 µM
same,Kd,HLA-C*12:03,0.306 µM
same,Kd,HLA-A*02:19,≥ 20 µM
same,Kd,HLA-A*03:01 [13]; [21],≥ 20 µM
same,Kd,HLA-A*02:03; [21],≥ 20 µM
same,Kd,HLA-A*02:16; [21],≥ 20 µM
same,Kd,HLA-A*68:02; [21],≥ 20 µM
same,Kd,HLA-B*18:01; [21],≥ 20 µM
same,Kd,HLA-B*27:03; [21],≥ 20 µM
same,Kd,HLA-B*58:01 [3]; [21],0.0731 µM
same,Kd,HLA-A*69:01 [11]; [21],≥ 20 µM
same,Kd,HLA-A*26:01 [4]; [21],≥ 20 µM
same,Kd,HLA-B*57:01; [21],≥ 20 µM
same,Kd,HLA-A*02:01 [14],≥ 20 µM
same,Kd,HLA-B*39:01 [15]; [21],≥ 20 µM
ISSGETRSF,Kd,HLA-A*02:12,≥ 20 µM
same,Kd,HLA-A*02:11,≥ 20 µM
same,Kd,HLA-A*02:19,≥ 20 µM
same,Kd,HLA-A*29:02,≥ 20 µM
same,Kd,HLA-A*03:01 [13]; [21],≥ 20 µM
same,Kd,HLA-A*02:03; [21],≥ 20 µM
same,Kd,HLA-A*02:16; [21],≥ 20 µM
same,Kd,HLA-B*15:01 [2]; source organism: Nitrococcus mobilis Nb-231,3.6 µM
same,Kd,HLA-A*68:02; [21],≥ 20 µM
same,Kd,HLA-B*51:01; [21],≥ 20 µM
same,Kd,HLA-B*18:01; [21],≥ 20 µM
same,Kd,HLA-B*27:03; [21],≥ 20 µM
same,Kd,HLA-B*58:01 [3]; [21],0.351 µM
same,Kd,HLA-A*69:01 [11]; [21],≥ 20 µM
same,Kd,HLA-A*26:01 [4]; [21],≥ 20 µM
same,Kd,HLA-B*46:01 [16]; [21],≥ 20 µM
same,Kd,HLA-B*57:01; [21],≥ 20 µM
same,Kd,HLA-A*02:01 [14],≥ 20 µM
same,Kd,HLA-B*39:01 [15]; [21],≥ 20 µM
KYYIYRLYF,Kd,HLA-A*69:01 [17],≥ 20 µM
same,Kd,HLA-C*06:02; source organism: Francisella tularensis subsp. tularensis FSC198,≥ 20 µM
same,Kd,HLA-A*24:03,0.0008 µM
same,Kd,HLA-A*31:01 [18],≥ 20 µM
LVFLGPGLY,Kd,HLA-A*01:01; source organism: Homo sapiens,0.221 µM
RMMATKDSF,Kd,HLA-C*15:02,≥ 20 µM
same,Kd,HLA-B*58:01 [7]; source organism: Orthohantavirus moroense,0.0065 µM
same,Kd,HLA-A*03:01 [13]; [22],≥ 20 µM
same,Kd,HLA-A*02:03; [22],≥ 20 µM
same,Kd,HLA-A*02:16; [22],≥ 20 µM
same,Kd,HLA-C*14:02; [23],0.157 µM
same,Kd,HLA-A*68:02; [22],≥ 20 µM
same,Kd,HLA-B*51:01; [23],≥ 20 µM
same,Kd,HLA-B*18:01; [23],≥ 20 µM
same,Kd,HLA-B*27:03; [23],≥ 20 µM
same,Kd,HLA-A*69:01 [11]; [23],≥ 20 µM
same,Kd,HLA-A*26:01 [4]; [23],≥ 20 µM
same,Kd,HLA-B*46:01 [16]; [23],≥ 20 µM
same,Kd,HLA-B*15:01 [6]; [23],0.0441 µM
same,Kd,HLA-B*39:01 [15]; [23],≥ 20 µM
